Measurements published in patent publication US6673915 (GENERAL HOSPITAL, dated 2004).

Molecular target: T1, CC CKR3 stably expressed on HEK-293 cells (Example 10A) (human, UniProt P51677 1-355)
T1 sequence (looked up): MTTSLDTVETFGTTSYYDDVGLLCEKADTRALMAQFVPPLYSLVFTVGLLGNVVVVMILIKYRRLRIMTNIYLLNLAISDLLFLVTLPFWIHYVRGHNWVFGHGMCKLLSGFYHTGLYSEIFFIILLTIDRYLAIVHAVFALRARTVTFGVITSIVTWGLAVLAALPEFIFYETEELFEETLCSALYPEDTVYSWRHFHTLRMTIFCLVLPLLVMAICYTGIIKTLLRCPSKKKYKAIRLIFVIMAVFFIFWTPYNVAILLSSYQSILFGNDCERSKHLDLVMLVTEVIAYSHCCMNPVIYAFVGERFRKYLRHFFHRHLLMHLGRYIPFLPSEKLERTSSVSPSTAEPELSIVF
Assay: cell-based or functional assay

EC50 of calcium flux relative to eotaxin at CKR3: ~2 fold
B1: recombinant human MCP-4 with the mature N-terminal Gln (PeproTech) (ligand)
chain: not shown
